The target in this assay is T1, human NPY2 receptor (human, UniProt P49146 1-381).
T1 construct: whole, on cells; also called hNPY2-R; hNPY2R
T1 sequence (looked up): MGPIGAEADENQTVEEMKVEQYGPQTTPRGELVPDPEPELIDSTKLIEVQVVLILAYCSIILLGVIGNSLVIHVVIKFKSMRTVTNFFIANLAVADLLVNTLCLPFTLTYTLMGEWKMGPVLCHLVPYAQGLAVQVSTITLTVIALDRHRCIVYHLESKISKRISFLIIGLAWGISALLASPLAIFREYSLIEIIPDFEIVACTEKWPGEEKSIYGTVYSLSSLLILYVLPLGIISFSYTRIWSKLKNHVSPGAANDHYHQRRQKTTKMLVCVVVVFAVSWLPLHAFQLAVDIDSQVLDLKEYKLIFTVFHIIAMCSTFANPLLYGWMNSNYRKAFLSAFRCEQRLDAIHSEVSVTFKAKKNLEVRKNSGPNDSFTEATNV
As to the kind of experiment: RLB: displacement of 125I-PYY(1-36) from hNPY2R membranes. (In general: In a radioligand displacement assay an active substance lowers the binding of a labelled ligand.)

Drawing on patent US20260015399A1 (Boehringer Ingelheim, published 2026), this text covers Ki for two molecules.

*1 amine or outer side, *2 acyl side, *3 side chain or, on linkers, in order; H or OH if unused. Side-chain parts run from the residue outwards. The star is where a group is joined. C18 diacid = O=C(O)CCCCCCCCCCCCCCCCC(=O)*; γGlu = O=C(O)[C@H](CCC(=O)[*:2])N[*:1]; Isovaleryl = CC(C)CC(=O)*; Ahx = NCCCCCC(=O)O

As usually defined, the Ki is the equilibrium dissociation constant of an inhibitor or competing ligand from its target. Read a high Ki as lower affinity.

B1: Compound 157 (peptide)
peptide: Isovaleryl-APAK([Ahx-γGlu-C18 diacid])PEEAASPEELQRYYVALRHYYNWLTRQRY-NH2
SMILES: CC(C)CC(=O)N[C@@H](C)C(=O)N1CCC[C@H]1C(=O)N[C@@H](C)C(=O)N[C@@H](CCCCNC(=O)CCCCCNC(=O)CC[C@H](NC(=O)CCCCCCCCCCCCCCCCC(=O)O)C(=O)O)C(=O)N1CCC[C@H]1C(=O)N[C@@H](CCC(=O)O)C(=O)N[C@@H](CCC(=O)O)C(=O)N[C@@H](C)C(=O)N[C@@H](C)C(=O)N[C@@H](CO)C(=O)N1CCC[C@H]1C(=O)N[C@@H](CCC(=O)O)C(=O)N[C@@H](CCC(=O)O)C(=O)N[C@@H](CC(C)C)C(=O)N[C@@H](CCC(N)=O)C(=O)N[C@@H](CCCNC(=N)N)C(=O)N[C@@H](Cc1ccc(O)cc1)C(=O)N[C@@H](Cc1ccc(O)cc1)C(=O)N[C@H](C(=O)N[C@@H](C)C(=O)N[C@@H](CC(C)C)C(=O)N[C@@H](CCCNC(=N)N)C(=O)N[C@@H](Cc1c[nH]cn1)C(=O)N[C@@H](Cc1ccc(O)cc1)C(=O)N[C@@H](Cc1ccc(O)cc1)C(=O)N[C@@H](CC(N)=O)C(=O)N[C@@H](Cc1c[nH]c2ccccc12)C(=O)N[C@@H](CC(C)C)C(=O)N[C@H](C(=O)N[C@@H](CCCNC(=N)N)C(=O)N[C@@H](CCC(N)=O)C(=O)N[C@@H](CCCNC(=N)N)C(=O)N[C@@H](Cc1ccc(O)cc1)C(N)=O)[C@@H](C)O)C(C)C
B1 showed a Ki of 1.68 nM. This lies in the single-digit nanomolar range.

B2: Compound 158 (peptide)
peptide: Isovaleryl-APEK([Ahx-γGlu-C18 diacid])PPEAASPEEIQRYYVALRHYYNWLTRQRY-NH2
SMILES: CC[C@H](C)[C@H](NC(=O)[C@H](CCC(=O)O)NC(=O)[C@H](CCC(=O)O)NC(=O)[C@@H]1CCCN1C(=O)[C@H](CO)NC(=O)[C@H](C)NC(=O)[C@H](C)NC(=O)[C@H](CCC(=O)O)NC(=O)[C@@H]1CCCN1C(=O)[C@@H]1CCCN1C(=O)[C@H](CCCCNC(=O)CCCCCNC(=O)CC[C@H](NC(=O)CCCCCCCCCCCCCCCCC(=O)O)C(=O)O)NC(=O)[C@H](CCC(=O)O)NC(=O)[C@@H]1CCCN1C(=O)[C@H](C)NC(=O)CC(C)C)C(=O)N[C@@H](CCC(N)=O)C(=O)N[C@@H](CCCNC(=N)N)C(=O)N[C@@H](Cc1ccc(O)cc1)C(=O)N[C@@H](Cc1ccc(O)cc1)C(=O)N[C@H](C(=O)N[C@@H](C)C(=O)N[C@@H](CC(C)C)C(=O)N[C@@H](CCCNC(=N)N)C(=O)N[C@@H](Cc1c[nH]cn1)C(=O)N[C@@H](Cc1ccc(O)cc1)C(=O)N[C@@H](Cc1ccc(O)cc1)C(=O)N[C@@H](CC(N)=O)C(=O)N[C@@H](Cc1c[nH]c2ccccc12)C(=O)N[C@@H](CC(C)C)C(=O)N[C@H](C(=O)N[C@@H](CCCNC(=N)N)C(=O)N[C@@H](CCC(N)=O)C(=O)N[C@@H](CCCNC(=N)N)C(=O)N[C@@H](Cc1ccc(O)cc1)C(N)=O)[C@@H](C)O)C(C)C
In turn, B2 displayed an inhibitory constant (Ki) of 0.58 nM. This Ki is about 2.9-fold lower than that of the molecule before.
